Data from PMC5794333, “Identification of osmoadaptive strategies in the halophile, heterotrophic ciliate Schmidingerothrix salinarum” (PLoS Biology, 2018).

Experiments:
purified protein [1] = substrate: O=C(O)CC(=O)C(=O)O; assay: purified protein; details: 0.05 M NaCl, 0.3 mM NADH, 32.5 mM Tris/HCl pH 7.5
purified protein [2] = substrate: O=C(O)CC(C(=O)O)C(O)C(=O)O; assay: purified protein; assay type: biochemical, Escherichia coli; details: 0.05 M NaCl, 0.8 mM NADP+, 1 mM MgCl2, 32.5 mM Tris/HCl pH 7.5, concentration as DL-isocitrate

Row | Protein | Km (purified protein [1]) [mM] | Vmax (purified protein [1]) [µmol/min/mg] | Km (purified protein [2]) [mM] | Vmax (purified protein [2]) [µmol/min/mg]
1 | MDHE.coli (Escherichia coli K-12) (protein) MKVAVLGAAGGIGQALALLLKTQLPSGSELSLYDIAPVTPGVAVDLSHIPTAVKIKGFSGEDATPALEGADVVLISAGVARKPGMDRSDLFNVNAGIVKNLVQQVAKTCPKACIGIITNPVNTTVAIAAEVLKKAGVYDKNKLFGVTTLDIIRSNTFVAELKGKQPGEVEVPVIGGHSGVTILPLLSQVPGVSFTEQEVADLTKRIQNAGTEVVEAKAGGGSATLSMGQAAARFGLSLVRALQGEQGVVECAYVEGDGQYARFFSQPLLLGKNGVEERKSIGTLSAFEQNALEGMLDTLKKDIALGEEFVNK | 0.022 | 1490 | – | –
2 | ICDHE.coli (Escherichia coli K-12) (protein, N-terminal His-tag, cloned from genomic DNA into pETDuet-1, E. coli BL21; Ni-NTA) MESKVVVPAQGKKITLQNGKLNVPENPIIPYIEGDGIGVDVTPAMLKVVDAAVEKAYKGERKISWMEIYTGEKSTQVYGQDVWLPAETLDLIREYRVAIKGPLTTPVGGGIRSLNVALRQELDLYICLRPVRYYQGTPSPVKHPELTDMVIFRENSEDIYAGIEWKADSADAEKVIKFLREEMGVKKIRFPEHCGIGIKPCSEEGTKRLVRAAIEYAIANDRDSVTLVHKGNIMKFTEGAFKDWGYQLAREEFGGELIDGGPWLKVKNPNTGKEIVIKDVIADAFLQQILLRPAEYDVIACMNLNGDYISDALAAQVGGIGIAPGANIGDECALFEATHGTAPKYAGQDKVNPGSIILSAEMMLRHMGWTEAADLIVKGMEGAINAKTVTYDFERLMDGAKLLKCSEFGDAIIENM | – | – | 0.021 | 46
